Like-named read-outs stand apart in the source and are kept apart here.
Tests used:
[1] = molecular target: Papain (E.C.3.4.22.2, from papaya latex) (papaya) (UniProt P00784); details: natural protein
[2] = molecular target: Papain (E.C.3.4.22.2, from papaya latex) (papaya) (UniProt P00784)
[3] = molecular target: Papain (E.C.3.4.22.2, from papaya latex) (papaya) (UniProt P00784); details: natural protein; remark: listed apart in the source
[4] = molecular target: Papain (E.C.3.4.22.2, from papaya latex) (papaya) (UniProt P00784); test: enzyme inhibition kinetics
[5] = molecular target: Papain (E.C.3.4.22.2, from papaya latex) (papaya) (UniProt P00784); remark: listed apart in the source
[6] = molecular target: Papain (E.C.3.4.22.2, from papaya latex) (papaya) (UniProt P00784); remark: listed apart in the source
[7] = molecular target: Papain (E.C.3.4.22.2, from papaya latex) (papaya) (UniProt P00784); remark: listed apart in the source
[8] = molecular target: Papain (E.C.3.4.22.2, from papaya latex) (papaya) (UniProt P00784); details: natural protein; remark: listed apart in the source
[9] = molecular target: Papain (E.C.3.4.22.2, from papaya latex) (papaya) (UniProt P00784); remark: listed apart in the source
[10] = molecular target: Papain (E.C.3.4.22.2, from papaya latex) (papaya) (UniProt P00784); remark: listed apart in the source
[11] = molecular target: Papain (E.C.3.4.22.2, from papaya latex) (papaya) (UniProt P00784); remark: listed apart in the source
[12] = molecular target: Papain (E.C.3.4.22.2, from papaya latex) (papaya) (UniProt P00784); remark: listed apart in the source
[13] = molecular target: Papain (E.C.3.4.22.2, from papaya latex) (papaya) (UniProt P00784); remark: listed apart in the source
[14] = molecular target: Papain (E.C.3.4.22.2, from papaya latex) (papaya) (UniProt P00784); remark: listed apart in the source
[15] = molecular target: Papain (E.C.3.4.22.2, from papaya latex) (papaya) (UniProt P00784); remark: listed apart in the source

Sequence of Papain (E.C.3.4.22.2, from papaya latex) (papaya) (P00784 134-345): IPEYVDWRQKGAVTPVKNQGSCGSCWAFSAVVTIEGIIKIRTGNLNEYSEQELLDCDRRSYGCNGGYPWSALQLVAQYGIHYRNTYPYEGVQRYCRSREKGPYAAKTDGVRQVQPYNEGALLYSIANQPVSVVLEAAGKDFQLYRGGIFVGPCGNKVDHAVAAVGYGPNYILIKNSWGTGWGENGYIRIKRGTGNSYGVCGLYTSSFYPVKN

Work on barley cystatin HaCYS3 yielded a Ki [1] of 15.4 nM.
Substance LjCYS has a Ki [2] of 13.5 nM.
Glycine soja GsCYS was tested, and the Ki [3] was 4.3 nM.
In the case of “SlCYS8 SE hybrid P-1 (first inhibitory loop of PpCYS)”, the Ki (papain), fold smaller than that of SlCYS8 [4] is reported as 7 fold.
Substance MsCYS has a Ki [5] of 7.1 nM.
In the case of SiCYS, the Ki [6] is reported as 5.5 nM.
EgCYS showed a Ki [7] of 6.4 nM.
Work on cucumber cystatin CsCYS yielded a Ki [8] of 14.4 nM.
Work on “Physcomitrella patens C-tailed cystatin domain PpCYS (domain or fragment)” yielded a Ki [4] of 1.2 nM.
“SlCYS8 SE hybrid P-N1 (N-terminal trunk and first inhibitory loop of PpCYS)” gave a Ki (papain), fold smaller than that of SlCYS8 [4] of 7 fold.
With ThCYS the Ki [9] was 14 nM.
Substance soybean GmCYSB (natural protein) has a Ki [4] of 38.2 nM.
In the case of “tomato multicystatin domain SlCYS7 (domain or fragment)”, the Ki [4] is reported as 2.7 nM.
PsCYS gave a Ki [10] of 4.8 nM.
With JcCYS the Ki [11] was 7 nM.
For ZmCYSB, the Ki [12] was 4.8 nM.
KsCYS gave a Ki [13] of 7.5 nM.
For SlCYS9, the Ki [14] was 13.3 nM.
For TcCYSB, the Ki [15] was 5.6 nM.

Reference: paper doi:10.1101/2021.07.22.453419
